Reference: patent publication US20250277050A1 (published 2025)

T1: human CD30 expressed on the cell surface (human, UniProt P28908 19-595)
T1 chain: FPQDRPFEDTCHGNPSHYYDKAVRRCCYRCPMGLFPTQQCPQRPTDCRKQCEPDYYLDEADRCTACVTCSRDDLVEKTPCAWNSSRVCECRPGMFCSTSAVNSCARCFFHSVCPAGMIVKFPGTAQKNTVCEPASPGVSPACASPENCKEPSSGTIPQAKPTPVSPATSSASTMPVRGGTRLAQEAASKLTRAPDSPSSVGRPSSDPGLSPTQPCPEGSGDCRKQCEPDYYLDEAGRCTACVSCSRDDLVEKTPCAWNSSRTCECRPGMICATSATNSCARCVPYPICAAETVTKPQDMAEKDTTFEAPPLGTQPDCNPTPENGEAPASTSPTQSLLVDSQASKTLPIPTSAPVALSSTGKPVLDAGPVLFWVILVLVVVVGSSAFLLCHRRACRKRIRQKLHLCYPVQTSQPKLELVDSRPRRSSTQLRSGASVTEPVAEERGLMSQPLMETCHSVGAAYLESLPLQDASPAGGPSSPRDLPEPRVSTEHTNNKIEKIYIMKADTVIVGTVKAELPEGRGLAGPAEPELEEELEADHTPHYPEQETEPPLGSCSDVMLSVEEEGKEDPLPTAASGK


Key:
[1] = biological target: T1, human CD30 expressed on the cell surface; assay: SPR; CD30 immobilized on CM5 chip, antibody as analyte
[2] = biological target: T1, human CD30 expressed on the cell surface; assay: SPR; antibody immobilized on Protein G chip, CD30 as analyte
[3] = biological target: T1, human CD30 expressed on the cell surface; assay: SPR; CD30 immobilized on CM5 chip, antibody as analyte

Binder | Kd [1] | Kd [2] | Ka [3]
10C2 (antibody, V domains shown) VH: QVQLEQSGPVLVKPGASVKMSCKASGYTFTDYYMNWVKQSHGKSLEWIGVINPYNGGTSYNQKFKGKATLTVDKSSSTACMELNCLTSEDSAVYYCTLGAYWGQGTSVTVSS VL: not shown | 0.607 nM | 1.76 nM | 1.65e+09 M⁻¹
15B8 (antibody, V domains shown) VH: QVQLEQSGTELVKPGASVKLSCKASGYTFTSYWMHWVKQRPGQGLEWIGNINPSNGGTNYNEKFKSKATLTVDKSSSTAYMQLSSLTSEDSAIYYCARRNNYYASSPFAYWGQGTLVSVSA VL: DIVMTQTPASLSASVGETVTITCRASGNIHNYLAWYQQKQGKSPQLLVYNAKTLADGVPSRFSGSGSGTQYSLKINSLQPEDFGSYYCQHFWSTPFTFGSGTKLEIK | 0.978 nM |  | 1.02e+09 M⁻¹

Binders with a lower Kd [1], results first:

Kd [1] | Kd [2] | Ka [3] | Binder
0.0592 nM | 1.14 nM | 1.69e+10 M⁻¹ | 8D10 (antibody, V domains shown) VH: QVQLQESGTELVKPGASVKLSCKASGYTFTSYWMHWMKQRPGQGLEWIGNINPSNGGTNYNEKFKNKATLTVDKSSSTAYMQLSSLTSEDSAVYYCARRDYYYGSSYGFDVWGTGTTVTVSS VL: DIVMTQSPASQSASLGESVTITCLASQTIGTWLAWYQQKPGKSPQFLIYAATSLADGVPSRFSGSGSGTKFSFKISSLQAEDFVSYYCQQLYSTPFTFGGGTKLEIK
0.149 nM |  | 6.7e+09 M⁻¹ | 13H1 (antibody, V domains shown) VH: QVQLQQSGTELVKPGASVKLSCKASGHTFTSYWMHWVKQRPGQGLEWIGNINPSNGGTNYNEKFKSKATLTVDKSSSTAYMQLSSLTSEDSAVYYCARRGYYGSSSYWSFDVWGTGTTVTVSS VL: DIVMTQTPKSMSMSVGERVTLSCKASENVGTYVSWYQQKPEQSPKVLIYGASNRFTGVPDRFTGSGSATDFTLTISSVQTEDLADYHCGQSYSYPLTFGAGTKLELK
0.199 nM |  | 5.02e+09 M⁻¹ | 12B1 (antibody, V domains shown) VH: EVKLEESGTELVKPGASVKLSCKASGYTFTSYWMHWVKQRPGQGLEWIGNINPTNGGTNYNEKFKSKATLTVDKSSRTAYMQLSSLTSGDSAVYYCARRDFITTSGFAYWGQGTLVTVSA VL: DIVMTQTTASLSTSVGETVTITCRASGNLHSYLTWYQQKQGKSPQLLVYNAKTLADGVPSRFSGSGSGTQYSLKIDSLQPEDFGSYYCQHFWTTPFTFGSGTKLEIK
